Changes are numbered by the printed parent chain. Where two headings read alike, the source gives them in different places. Values belong to the binder of their own block, whether it stands above or below them.
What was measured:
[1] = target: T1, CD97 (ADGRE5) isoform 1 ectodomain, purified and biotinylated (human, UniProt P48960 21-552, limits assumed, biotinylated in vitro using the BirA enzyme); assay: bead-based binding titration (biotinylated antigen on streptavidin beads, flow cytometry), 1:1 fit
T1 construct: the whole entry for isoform 1 is named here; also called CD97 isoform 1; Biotinylated CD97 isoform 1
T1 sequence: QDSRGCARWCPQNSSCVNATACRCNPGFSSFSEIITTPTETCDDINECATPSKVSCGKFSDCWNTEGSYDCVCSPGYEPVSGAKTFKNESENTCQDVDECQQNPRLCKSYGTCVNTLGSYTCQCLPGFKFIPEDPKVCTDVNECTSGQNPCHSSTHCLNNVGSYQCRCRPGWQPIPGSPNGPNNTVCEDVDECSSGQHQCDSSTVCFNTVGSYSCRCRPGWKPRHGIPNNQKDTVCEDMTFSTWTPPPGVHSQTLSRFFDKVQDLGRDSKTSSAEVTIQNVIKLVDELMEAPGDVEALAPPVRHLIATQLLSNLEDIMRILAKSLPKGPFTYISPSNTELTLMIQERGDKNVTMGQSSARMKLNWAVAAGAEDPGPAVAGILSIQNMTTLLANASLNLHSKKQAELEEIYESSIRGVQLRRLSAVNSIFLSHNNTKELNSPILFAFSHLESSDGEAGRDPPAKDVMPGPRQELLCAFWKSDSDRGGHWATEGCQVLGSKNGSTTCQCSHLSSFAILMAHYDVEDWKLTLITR

[2] = target: T2, CD97 (ADGRE5) isoform 2 ectodomain, purified and biotinylated (human, UniProt P48960 21-552, biotinylated in vitro using the BirA enzyme); assay: as above
T2 construct: the whole entry for isoform 2 is named here; also called CD97 isoform 2
T2 sequence: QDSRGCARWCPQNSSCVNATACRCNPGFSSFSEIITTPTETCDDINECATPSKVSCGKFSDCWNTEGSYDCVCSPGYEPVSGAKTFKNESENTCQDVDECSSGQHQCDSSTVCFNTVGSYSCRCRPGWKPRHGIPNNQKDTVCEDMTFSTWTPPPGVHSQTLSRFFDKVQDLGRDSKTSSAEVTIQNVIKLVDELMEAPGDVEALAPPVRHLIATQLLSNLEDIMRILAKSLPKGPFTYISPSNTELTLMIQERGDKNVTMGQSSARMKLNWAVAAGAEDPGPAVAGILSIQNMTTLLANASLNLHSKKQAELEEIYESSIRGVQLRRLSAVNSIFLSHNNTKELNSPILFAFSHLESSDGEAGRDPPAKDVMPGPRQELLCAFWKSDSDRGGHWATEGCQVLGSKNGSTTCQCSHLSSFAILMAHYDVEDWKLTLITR

[3] = target: T1, CD97 (ADGRE5) isoform 1 ectodomain, …; assay: as above; remark: listed apart in the source
[4] = target: T2, CD97 (ADGRE5) isoform 2 ectodomain, …; assay: as above; remark: listed apart in the source
[5] = target: Endogenous CD97 on the cell surface (human) (UniProt P48960); assay: cell-based binding titration on OCI-AML3 cells, flow cytometry, 1:1 fit

B1: Fab B23 (Fab, V domains shown)
VH: EVQLVESGGGLVQPGGSLRLSCAASGFTVSSSSIHWVRQAPGKGLEWVASIYPYSGSTSYADSVKGRFTISADTSKNTAYLQMNSLRAEDTAVYYCARSLGWHRHYNYYFYFYANAIDYWGQGTLVTVSS
VL: DIQMTQSPSSLSASVGDRVTITCRASQSVSSAVAWYQQKPGKAPKLLIYSASSLYSGVPSRFSGSRSGTDFTLTISSLQPEDFATYYCQQYWGSDPITFGQGTKVEIKR
notes: first discovery campaign; also called Antibody Clone B23
Kd [1]: 0.9 nM
Kd [2]: 0.9 nM

B2: Fab 2Z11 (Fab, V domains shown)
VH: EVQLVESGGGLVQPGGSLRLSCAASGFTFYYSSIHWVRQAPGKGLEWVASIYSYSGYTSYADSVKGRFTISADTSKNTAYLQMNSLRAEDTAVYYCARYYISGPYYAYRSYTSYAMDYWGQGTLVTVSS
VL: B1 VL with S94Y, D95S, P96L
notes: second discovery campaign; biotinylated Fab in the bead assay; also called Antibody Clone 2Z11
Kd [3]: 3.4 nM
Kd [4]: 3 nM

B4: Fab A1 (Fab, V domains shown)
VH: EVQLVESGGGLVQPGGSLRLSCAASGFTISSSSIHWVRQAPGKGLEWVASIYSYYGSTYYADSVKGRFTISADTSKNTAYLQMNSLRAEDTAVYYCARPVYGQLGYWTQRWSGMDYWGQGTLVTVSS
VL: DIQMTQSPSSLSASVGDRVTITCRASQSVSSAVAWYQQKPGKAPKLLIYSASSLYSGVPSRFSGSRSGTDFTLTISSLQPEDFATYYCQQYSWSSYLITFGQGTKVEIKR
notes: first discovery campaign; also called Antibody Clone A1
Kd [1]: 1.7 nM
Kd [2]: 1.7 nM

B6: Fab B3 (Fab, V domains shown)
VH: EVQLVESGGGLVQPGGSLRLSCAASGFTFSSSSIHWVRQAPGKGLEWVASISPYSGYTSYADSVKGRFTISADTSKNTAYLQMNSLRAEDTAVYYCARAYYYWSHWYMHYVSYPGGMDYWGQGTLVTVSS
VL: B4 VL with Y91L, S92R, W93H, S94Y, Y96H
notes: first discovery campaign; also called Antibody Clone B3
Kd [1]: 5.8 nM
Kd [2]: 4.3 nM

B7: Antibody clone C27, human IgG1 LALA-PG format (antibody, V domains shown)
VH: EVQLVESGGGLVQPGGSLRLSCAASGFTLSSSSIHWVRQAPGKGLEWVASIYSYYGSTYYADSVKGRFTISADTSKNTAYLQMNSLRAEDTAVYYCARYRGNMYYWESWYGSYWALDYWGQGTLVTVSS
VL: DIQMTQSPSSLSASVGDRVTITCRASQSVSSAVAWYQQKPGKAPKLLIYSASSLYSGVPSRFSGSRSGTDFTLTISSLQPEDFATYYCQQSSSSLITFGQGTKVEIKR
Kd [5]: 9.6 nM

B8: Antibody clone 2V10, human IgG1 LALA-PG format (antibody, V domains shown)
VH: EVQLVESGGGLVQPGGSLRLSCAASGFTISSSSIHWVRQAPGKGLEWVAYIYPSSGSTSYADSVKGRFTISADTSKNTAYLQMNSLRAEDTAVYYCARPWYYSTFNKKWWDYQGLDYWGQGTLVTVSS
VL: B7 VL with S92W, S93W, S94D, L95P
Kd [5]: 0.3 nM

B9: Fab B20 (Fab, V domains shown)
VH: EVQLVESGGGLVQPGGSLRLSCAASGFTISSSSIHWVRQAPGKGLEWVASISSSSGSTSYADSVKGRFTISADTSKNTAYLQMNSLRAEDTAVYYCARIRHYHWYEIPYWDWAIDYWGQGTLVTVSS
VL: B7 VL
notes: first discovery campaign; also called Antibody Clone B20
Kd [1]: 2.3 nM
Kd [2]: 2.9 nM

B10: Fab B25 (Fab, V domains shown)
VH: EVQLVESGGGLVQPGGSLRLSCAASGFTISSSSIHWVRQAPGKGLEWVASISSYSGSTSYADSVKGRFTISADTSKNTAYLQMNSLRAEDTAVYYCARSFFKYYLWYGYHNYWSAIDYWGQGTLVTVSS
VL: B7 VL
notes: first discovery campaign; also called Antibody Clone B25
Kd [1]: 5.8 nM
Kd [2]: 5.5 nM

B11: Fab 2Z7 (Fab, V domains shown)
VH: EVQLVESGGGLVQPGGSLRLSCAASGFTFSSSSIHWVRQAPGKGLEWVASISSSSGSTSYADSVKGRFTISADTSKNTAYLQMNSLRAEDTAVYYCARSYWERYYYWYYFYQYELGLDYWGQGTLVTVSS
VL: B7 VL
notes: second discovery campaign; biotinylated Fab in the bead assay; also called Antibody Clone 2Z7
Kd [3]: 38 nM
Kd [4]: 30 nM

The remaining lines, values ahead:

Kd [1]: 4.7 nM
Kd [2]: 5 nM
B3: Fab C14 (Fab, V domains shown)
VH: EVQLVESGGGLVQPGGSLRLSCAASGFTVSSSSIHWVRQAPGKGLEWVASIYSYSGSTSYADSVKGRFTISADTSKNTAYLQMNSLRAEDTAVYYCARSFGWGQSFYYSHYFYITAFDYWGQGTLVTVSS
VL: B1 VL with G93H, S94E, D95S, P96L
notes: first discovery campaign; also called Antibody Clone C14

Kd [1]: 2.5 nM
Kd [2]: 2.7 nM
B5: Fab B34 (Fab, V domains shown)
VH: EVQLVESGGGLVQPGGSLRLSCAASGFTVSYSSIHWVRQAPGKGLEWVASIYSSSGYTSYADSVKGRFTISADTSKNTAYLQMNSLRAEDTAVYYCARSYYRYYLSPIYWGSWGMDYWGQGTLVTVSS
VL: B4 VL with Y91S, S92G, W93Y, S94Y, S95G, Y96H
notes: first discovery campaign; also called Antibody Clone B34

Kd [5]: 1 nM
B12: hIgG1_LALA D25 (antibody, V domains shown)
VH: EVQLVESGGGLVQPGGSLRLSCAASGFTFSSSSIHWVRQAPGKGLEWVASISPYYGSTSYADSVKGRFTISADTSKNTAYLQMNSLRAEDTAVYYCARKLEWGMFFWSPYFRALDYWGQGTLVTVSS
VL: DIQMTQSPSSLSASVGDRVTITCRASQSVSSAVAWYQQKPGKAPKLLIYSASSLYSGVPSRFSGSRSGTDFTLTISSLQPEDFATYYCQQSSSSLITFGQGTKVEIK

Kd [5]: 25 nM
B13: hIgG1_LALA 2W1 (antibody, V domains shown)
VH: EVQLVESGGGLVQPGGSLRLSCAASGFTVSSSSIHWVRQAPGKGLEWVAYISSSSGSTYYADSVKGRFTISADTSKNTAYLQMNSLRAEDTAVYYCARDFYFGSYYSFGWGLDYWGQGTLVTVSS
VL: B12 VL with S91D, S94Y, L95P

Kd [5]: 140 nM
B14: hIgG1_LALA 2Z3 (antibody, V domains shown)
VH: EVQLVESGGGLVQPGGSLRLSCAASGFTFSSSSIHWVRQAPGKGLEWVASISSSSGSTSYADSVKGRFTISADTSKNTAYLQMNSLRAEDTAVYYCARVLLGKFWYYNYYEYSAMDYWGQGTLVTVSS
VL: B12 VL
